Literature values, collected in US20050181456A1, “Methods for determining the amount of peptide YY in blood” (Nastech Pharmaceutical Company Inc., priority 2004, published 2005).

Molecular target: T1, Y2 receptor (Homo sapiens, UniProt P49146)
T1 sequence (P49146 1-381): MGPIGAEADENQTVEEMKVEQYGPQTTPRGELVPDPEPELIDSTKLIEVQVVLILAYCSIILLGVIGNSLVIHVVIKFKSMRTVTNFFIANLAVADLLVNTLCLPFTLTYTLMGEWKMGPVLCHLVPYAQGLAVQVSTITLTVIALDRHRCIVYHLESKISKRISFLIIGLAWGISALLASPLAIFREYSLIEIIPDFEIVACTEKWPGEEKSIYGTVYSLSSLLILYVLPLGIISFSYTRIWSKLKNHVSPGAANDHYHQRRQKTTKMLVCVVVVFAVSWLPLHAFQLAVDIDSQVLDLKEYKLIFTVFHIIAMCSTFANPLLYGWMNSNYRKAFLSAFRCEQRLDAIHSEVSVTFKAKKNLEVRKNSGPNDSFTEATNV
Settings: cited from earlier work

PYY fragment having only residues 22-36: PYY fragment having only residues 22-36 (ASLRHYLNLVTRQRY; listed as Homo sapiens)
binding to the Y2 receptor: will still bind
